Data on 2 molecules can be found in patent publication US20200339692A1 (JIANGSU HENGRUI MEDICINE, published 2020).

Like-named read-outs stand apart in the source and are kept apart here.

Test [1] deals with T1, human PD-L1 (Cat. #10084-H08H, Sino Biological) (human, UniProt Q9NZQ7 19-239).
T1 construct: Bought recombinant protein used in the Biacore test; also called hPDL1; hPD-L1
The test can be described thus: SPR, Biacore X100. The procedure: (§1) According to the method in the manual of human anti-capture kit (Cat. A BR-1008-39, GE), the human anti-capture antibody was covalently coupled to biosensor chip CM5 (Cat. #BR-1000-12, GE) so that a certain amount of human PD-L1 (Cat. #10084-H08H, Sino Biological) monkey PD-L1 (Cat. #90251-C08H, Sino Biological), mouse PD-L1 (Cat. #50010-M08H, Sino Biological) were affinity captured. The affinity of PD-L1 antibody reacting with PD-L1 was measured with Biacore X100, GE instrument.

Test [2] has as its target T2, monkey PD-L1 (Cat. #90251-C08H, Sino Biological) (monkey (cyno), UniProt G7PSE7 19-239).
T2 construct: Bought recombinant protein used in the Biacore test; also called Monkey (cyno) PD-L1; Cyno PDL1
The test is described as follows: SPR, Biacore X100. The method, then: as §1

Test [3] addresses T3, mouse PD-L1 (Cat. #50010-M08H, Sino Biological) (mouse, UniProt Q9EP73 19-238).
T3 construct: Bought recombinant protein used in the Biacore test
The test is described as follows: SPR, Biacore X100. The method, then:
as §1

Test [4] addresses T1, human PD-L1 (Cat. #10084-H08H, Sino …). The test is described as follows: SPR, Biacore X100, 1:1 Langmuir. The procedure: as §1
For test [5], the target named is T2, monkey PD-L1 (Cat. #90251-C08H, Sino …). The test is described as follows: SPR, Biacore X100, 1:1 Langmuir. The method, then: as §1
Test [6] deals with T4, human PD-L1 (ligand blocking test) (human, UniProt Q9NZQ7 19-238, limits assumed). The test is described as follows: blocking of human PD-L1/PD-1 binding, PD-L1 10 ug/ml; competitor PD-1.
T4 sequence (Q9NZQ7 19-238 limits assumed): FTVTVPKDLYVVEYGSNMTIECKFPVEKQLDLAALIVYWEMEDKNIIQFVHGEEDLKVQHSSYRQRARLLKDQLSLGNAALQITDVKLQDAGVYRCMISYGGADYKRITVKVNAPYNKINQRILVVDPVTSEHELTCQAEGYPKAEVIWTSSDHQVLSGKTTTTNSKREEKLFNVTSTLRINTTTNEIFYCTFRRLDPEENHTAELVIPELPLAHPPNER
Test [7] concerns the target T1, human PD-L1 (Cat. #10084-H08H, Sino …). The test can be described thus: SPR, Biacore X100, 1:1 Langmuir. The procedure:
as §1
The source holds these as a separate data set.

The target of test [8] is T2, monkey PD-L1 (Cat. #90251-C08H, Sino …). The test can be described thus: SPR, Biacore X100, 1:1 Langmuir. The method, then:
as §1
This is another data set of the same source.

The target of test [9] is T4, human PD-L1 (ligand blocking test). The test is described as follows: blocking of B7-1 binding to human PD-L1, PD-L1 1 ug/ml; competitor B7-1.

T1 sequence (Q9NZQ7 19-239 limits assumed): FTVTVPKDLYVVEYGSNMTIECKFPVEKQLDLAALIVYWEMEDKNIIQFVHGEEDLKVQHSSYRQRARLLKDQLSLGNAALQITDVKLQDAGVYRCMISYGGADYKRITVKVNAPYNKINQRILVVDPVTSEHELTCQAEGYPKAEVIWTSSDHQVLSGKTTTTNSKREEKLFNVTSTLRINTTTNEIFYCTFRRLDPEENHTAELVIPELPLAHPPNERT
T2 sequence (G7PSE7 entry or part of it C08H C08H): as the sequence (Q9NZQ7 19-239 limits assumed) above, with A33T, A34S, S62N, R68Q, Q82R, F173L, T185A, T192I, H215L counted along it
T3 sequence (Q9EP73 19-238 limits assumed, stated change not applied): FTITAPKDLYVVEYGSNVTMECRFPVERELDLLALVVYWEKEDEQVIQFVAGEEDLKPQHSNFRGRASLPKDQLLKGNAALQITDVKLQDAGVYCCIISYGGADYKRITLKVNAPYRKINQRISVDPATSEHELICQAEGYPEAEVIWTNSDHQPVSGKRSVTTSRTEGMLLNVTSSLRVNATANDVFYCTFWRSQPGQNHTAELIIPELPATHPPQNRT

B1: H21L68 (antibody, human IgG1, kappa, V domains shown)
VH: QVQLVQSGAEVKKPGASVKVSCKASGYTFTDKWMMWVRQAPGQGLEWMGRITPSSGFAMYNEKFKNRVTMTRDTSTSTVYMELSSLRSEDTAVYYCARGGSSYDYFDYWGQGTTVTVSS
VL: DIVLTQSPASLAVSPGQRATITCRASESVSIHGTHLMHWYQQKPGQPPKLLIYVASNVWSGVPARFSGSGSGTDFTLTINPVEAEDTANYYCQQSFEDPLTFGQGTKLEIKR
notes: also called 24D5 H21 and 24D5 L68
For the molecule B1, the binding result in test [1] and in test [2] was “no binding” in each case.

B2: HRP00052: 24D5(GF)IgG4(AA)(S228P) (antibody)
heavy: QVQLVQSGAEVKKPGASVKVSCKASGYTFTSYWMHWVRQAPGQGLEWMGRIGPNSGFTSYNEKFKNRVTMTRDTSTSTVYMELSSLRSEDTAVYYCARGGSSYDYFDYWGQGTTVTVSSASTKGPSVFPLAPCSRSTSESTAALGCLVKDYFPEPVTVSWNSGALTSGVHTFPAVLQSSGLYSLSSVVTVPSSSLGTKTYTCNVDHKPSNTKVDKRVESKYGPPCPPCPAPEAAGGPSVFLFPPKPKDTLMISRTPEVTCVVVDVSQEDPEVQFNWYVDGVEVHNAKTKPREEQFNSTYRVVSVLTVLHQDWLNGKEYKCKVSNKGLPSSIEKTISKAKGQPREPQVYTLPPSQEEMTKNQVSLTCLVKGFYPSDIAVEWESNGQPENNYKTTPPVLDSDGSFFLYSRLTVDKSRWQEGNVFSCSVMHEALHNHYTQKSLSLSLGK
light: DIVLTQSPASLAVSPGQRATITCRASESVSIHGTHLMHWYQQKPGQPPKLLIYAASNLESGVPARFSGSGSGTDFTLTINPVEAEDTANYYCQQSFEDPLTFGQGTKLEIKRTVAAPSVFIFPPSDEQLKSGTASVVCLLNNFYPREAKVQWKVDNALQSGNSQESVTEQDSKDSTYSLSSTLTLSKADYEKHKVYACEVTHQGLSSPVTKSFNRGEC
notes: Parent antibody from WO2017084495A1
B2: in [3], the binding result is on record as “no binding”. Further, the Kd was 0.0672 nM in test [4], 0.062 nM in test [5], 0.11 nM in [7] and 0.114 nM in test [8]. Further, the koff in [4] stood at 0.000116 s⁻¹; in test [5] it was 9.38e-05 s⁻¹; in [7], 0.000139 s⁻¹; in test [8], 0.000143 s⁻¹. Moreover, the kon in [4] came out at 1.73e+06 M⁻¹ s⁻¹; in test [5], 1.51e+06 M⁻¹ s⁻¹; in test [7], 1.26e+06 M⁻¹ s⁻¹; in test [8], 1.26e+06 M⁻¹ s⁻¹. The half-inhibitory concentration (IC50) in test [6] is 0.242 ng/mL; in [9], 1.23 ng/mL.
